According to patent US20070192906A1:

Biological target: rice storage protein glutelin B1 (rice) (UniProt P14323)

Substance: pepsin (enzyme)
- degradation by pepsin treatment (Western blot): 90 % degraded
